We go through six substances from paper PMC3592866.

“And” between values parts separate entries of the source, which are not always exact repeats. Equal values may be shown once.

As usually defined, the stoichiometry N is the number of molecules, sites or subunits per partner or assembly.

For experiment [1], the target named is pXqua MltBP-QUA1-C59S fusion protein (Xenopus laevis). The experiment is described as follows: SEC; analytical Superdex-200 PC 3.2/30 of MltBP-QUA1 fusion proteins; 20 mM Tris-HCl pH 7.9, 150 mM NaCl, 0.05% sodium azide; 50 uL at 1 mg/mL loaded; apparent aggregation numbers from calibration; monomer to dimer. In general terms: SEC sorts molecules by how far they enter the pores of the column.

Experiment [2] has as its target pXqua MltBP-QUA1-C59S/R67E/E72R fusion protein (Xenopus laevis). The description is as above.
Experiment [3] addresses pXqua QUA1-C59S (protease-liberated peptide) (Xenopus laevis). The experiment is described as follows: AUC; sedimentation equilibrium of released QUA1-C59S, global single species fits; monomer to dimer.
The target in experiment [4] is pXqua MltBP-QUA1-C59S/R67A fusion protein (Xenopus laevis). The experiment is described as follows: SEC; analytical Superdex-200 PC 3.2/30 of MltBP-QUA1 fusion proteins; 20 mM Tris-HCl pH 7.9, 150 mM NaCl, 0.05% sodium azide; 50 uL at 1 mg/mL loaded; apparent aggregation numbers from calibration; monomer to dimer.
Experiment [5] has as its target pXqua MltBP-QUA1-C59S/R67A/E72G fusion protein (Xenopus laevis). The description is as above.
The target of experiment [6] is wild type pXqua MltBP-QUA1 fusion protein (Xenopus laevis). The experiment is described as above.

For “pXqua MltBP-QUA1-C59S fusion protein (domain or fragment)”, in experiment [1], the AAN (apparent aggregation number) amounted to 2.7 and the stoichiometry N was 2. For the substance “pXqua MltBP-QUA1-C59S/R67E/E72R fusion protein (domain or fragment)”, in experiment [2], the AAN (apparent aggregation number) was found to be 2.1 and the percent of species in the dimeric state was 70%. Take “pXqua QUA1-C59S (protease-liberated peptide) (domain or fragment)”: in experiment [3], the stoichiometry N was found to be 2. Regarding “pXqua MltBP-QUA1-C59S/R67A fusion protein (domain or fragment)”, in experiment [4], the AAN (apparent aggregation number) is 1.7 and the percent of species in the dimeric state amounted to 40%. In the case of “pXqua MltBP-QUA1-C59S/R67A/E72G fusion protein (domain or fragment)”, the fraction eluting in the dimer peak in experiment [5] was found to be 0.33. With “wild type pXqua MltBP-QUA1 fusion protein (domain or fragment)”, in experiment [6], the stoichiometry N is 4 and 2.
